Assay results from patent US20230322953A1 (HARBOUR BIOMED SHANGHAI, published 2023).

Biological target: T1, human BCMA (human, UniProt Q02223 1-184)
T1 construct: whole, on cells; also called hBCMA; TNFRSF17
T1 sequence (looked up): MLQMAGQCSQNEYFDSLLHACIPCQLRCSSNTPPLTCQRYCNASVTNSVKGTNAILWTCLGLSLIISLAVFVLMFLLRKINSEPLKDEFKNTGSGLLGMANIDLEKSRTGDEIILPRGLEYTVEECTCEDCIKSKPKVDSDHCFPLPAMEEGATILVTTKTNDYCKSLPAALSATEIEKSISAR
Experiment: FACS on NCI-H929 cells

B1: PR002300 (bispecific antibody, human IgG1, lambda, L234A L235A)
light: QAVVTQEPSLTVSPGGTVTLTCRSSTGAVTTSNYANWVQQKPGQAPRGLIGGTNKRAPWTPARFSGSLLGDKAALTLLGAQPEDEAEYFCALWYSNLWVFGGGTKLTVLGQPKAAPSVTLFPPSSEELQANKATLVCLISDFYPGAVTVAWKADSSPVKAGVETTTPSKQSNNKYAASSYLSLTPEQWKSHRSYSCQVTHEGSTVEKTVAPTECS
heavy: EVQLLESGGGLVQPGGSLRLSCAASGFTFSTYAMNWVRQAPGKGLEWVSRIRSKYNNYATYYADSVKDRFTISRDDSKSTLYLQMNSLRAEDTAVYYCVRHGNFGNSYVSWFAYWGQGTLVTVSSASTKGPSVFPLAPSSKSTSGGTAALGCLVKDYFPEPVTVSWNSGALTSGVHTFPAVLQSSGLYSLSSVVTVPSSSLGTQTYICNVNHKPSNTKVDKKVEPKSCDKTHTCPPCPAPEAAGGPSVFLFPPKPKDTLMISRTPEVTCVVVDVSHEDPEVKFNWYVDGVEVHNAKTKPREEQYNSTYRVVSVLTVLHQDWLNGKEYKCKVSNKALGAPIEKTISKAKGQPREPQVYTLPPCREEMTKNQVSLWCLVKGFYPSDIAVEWESNGQPENNYKTTPPVLDSDGSFFLYSKLTVDKSRWQQGNVFSCSVMHEALHNHYTQKSLSLSPGK
chain: EVQLLESGGGLVQPGGSLRLSCAASGFTFSSYAMIWVRQAPGKGLEWVSGISESGGSTYYADSVKGRFTISRDNSKNTLYLQMNSLRAEDTAVYFCVKDLDDILTGYYKDYWGQGTLVTVSSRTGGGGSGGGGSGGGGSKLEVQLLESGGGLVQPGGSLRLSCAASGFTFSSYAMIWVRQAPGKGLEWVSGISESGGSTYYADSVKGRFTISRDNSKNTLYLQMNSLRAEDTAVYFCVKDLDDILTGYYKDYWGQGTLVTVSSASEPKSSDKTHTCPPCPAPEAAGGPSVFLFPPKPKDTLMISRTPEVTCVVVDVSHEDPEVKFNWYVDGVEVHNAKTKPREEQYNSTYRVVSVLTVLHQDWLNGKEYKCKVSNKALGAPIEKTISKAKGQPREPQVCTLPPSREEMTKNQVSLSCAVKGFYPSDIAVEWESNGQPENNYKTTPPVLDSDGSFFLVSKLTVDKSRWQQGNVFSCSVMHEALHNHYTQKSLSLSPGK
notes: BCMAxCD3, Fab-Fc-VH(2) (structure 14); CD3 Fab of PR001848, two BCMA VH of PR000940, linker RT-GS_15-KL; IgG1 knob/hole, AAG
Maximum MFI: 44200

B2: PR002332 (bispecific antibody, human IgG1, lambda, L234A L235A)
light: B1 light
heavy: B1 heavy
chain: EVQLVETGGGLIQPGGSLRLSCAASGFTVSDNYMTWVRQAPGKGLEWVSVIFSGGNTYYADSVKGRFTISRDNAKNTLYLQMNSLRAEDTALYYCARRNYDDTRGTDVFDIWGQGTMVTVSSRTGGGGSGGGGSGGGGSKLEVQLVETGGGLIQPGGSLRLSCAASGFTVSSNYMTWVRQAPGKGLEWVSVIFSGGSTYYADSVKGRFTISRDNSKNTLYLQMNSLRAEDTAVYYCARRIAVAGHDVFDIWGQGTMVTVSSASEPKSSDKTHTCPPCPAPEAAGGPSVFLFPPKPKDTLMISRTPEVTCVVVDVSHEDPEVKFNWYVDGVEVHNAKTKPREEQYNSTYRVVSVLTVLHQDWLNGKEYKCKVSNKALGAPIEKTISKAKGQPREPQVCTLPPSREEMTKNQVSLSCAVKGFYPSDIAVEWESNGQPENNYKTTPPVLDSDGSFFLVSKLTVDKSRWQQGNVFSCSVMHEALHNHYTQKSLSLSPGK
notes: BCMAxCD3, Fab-Fc-VH'-VH'' (structure 15); IgG1 knob/hole, AAG
EC50: 9 nM | Maximum MFI: 84500

B3: PR000274 (antibody, human IgG1, kappa, V domains shown)
VH: QVQLVQSGAEVKKPGSSVKVSCKASGGTFSNYWMHWVRQAPGQGLEWMGATYRGHSDTYYNQKFKGRVTITADKSTSTAYMELSSLRSEDTAVYYCARGAIYDGYDVLDNWGQGTLVTVSS
VL: DIQMTQSPSSLSASVGDRVTITCSASQDISNYLNWYQQKPGKAPKLLIYYTSNLHSGVPSRFSGSGSGTDFTLTISSLQPEDFATYYCQQYRKLPWTFGQGTKLEIKR
notes: also called Positive control 1; CA8-J6M0
EC50: 28.9 nM
